Assay results: patent US20220213227A1 (published 2022)

Molecular target: T1, soluble extracellular region of cynomolgus monkey CD38 antigen fused to a 6-His-tag (UniProt Q5VAN0 45-301)
T1 chain: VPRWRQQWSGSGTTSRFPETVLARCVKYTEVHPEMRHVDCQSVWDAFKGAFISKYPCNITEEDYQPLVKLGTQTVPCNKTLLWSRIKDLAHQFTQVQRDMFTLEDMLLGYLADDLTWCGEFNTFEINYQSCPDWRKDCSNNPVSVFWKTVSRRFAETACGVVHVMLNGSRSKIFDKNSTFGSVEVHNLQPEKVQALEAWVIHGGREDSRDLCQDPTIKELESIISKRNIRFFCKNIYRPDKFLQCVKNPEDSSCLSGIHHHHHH
Experiment: SPR

Kd: 1 nM
B1: chimeric 9G7 antibody (antibody, V domains shown)
VH: QVTLKESGPGILQPSQTLSLTCSFSGLSLSTSGKGVGWIRQPSGKGLEWLAHIWWDDDKRYNPALKSRLTISKDTSSNQVFLKIASVDTADTATYYCARIELGRSYVMDYWGQGTTVTVSS
VL: DIVMTQSHKFMSTSVGDRVSISCKASQDVITSVAWFQQKPGQSPKLLIYSASYRYTGVPDRFTGSGSGTDFTFTISSVQAEDLAVYYCQQHYTIPLTFGAGTKLELKR
